Key:
[1] = target: TGFβ receptor II (TGFβRII) on IMR90 human lung fibroblasts (human) (UniProt P37173); test: cell-based or functional assay
[2] = target: TGFβ receptor on mink lung epithelial cells (MLEC-TGFβ, PAI-1 promoter luciferase reporter) (mink); test: cell-based or functional assay

TGFβ receptor II (TGFβRII) on IMR90 human lung fibroblasts (human), sequence (P37173 23-567): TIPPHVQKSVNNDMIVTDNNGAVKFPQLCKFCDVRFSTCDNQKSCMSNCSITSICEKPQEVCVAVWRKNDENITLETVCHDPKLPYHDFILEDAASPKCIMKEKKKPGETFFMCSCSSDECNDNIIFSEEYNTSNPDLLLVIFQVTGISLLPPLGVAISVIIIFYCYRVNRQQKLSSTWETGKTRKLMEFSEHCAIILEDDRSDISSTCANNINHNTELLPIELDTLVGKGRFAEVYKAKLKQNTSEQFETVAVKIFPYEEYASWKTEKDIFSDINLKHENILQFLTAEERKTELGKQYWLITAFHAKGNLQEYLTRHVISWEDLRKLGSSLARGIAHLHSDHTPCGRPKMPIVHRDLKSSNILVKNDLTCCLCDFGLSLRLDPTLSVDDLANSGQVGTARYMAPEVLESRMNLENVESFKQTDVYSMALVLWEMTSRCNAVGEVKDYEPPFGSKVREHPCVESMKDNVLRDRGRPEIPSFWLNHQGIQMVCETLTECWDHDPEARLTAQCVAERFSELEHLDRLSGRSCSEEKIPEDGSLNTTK

Row | SMA and collagen protein expression in IMR90 cells (48 h) [1] | luciferase activity (PAI-1 promoter reporter in MLEC cells) [2] | Smad3 phosphorylation in IMR90 cells (Western blot, 30 min) [1] | Substance
1 | 30 nM | 25 µg/mL |  | C-terminal discoidin and carboxypeptidase domains of mouse ACLP (amino acids 374-1128, C-terminal myc-His tag) (from UniProt Q640N1 374-1128)
2 |  | 5 µg/mL | 30 nM | N-terminal Tsp repeat domain of mouse ACLP (amino acids 26-373, C-terminal myc-His tag) (from UniProt Q640N1 26-373) (ligand)
